The data set is described as follows: label from the status in PepcDB records.
In the case of “MRMNILLAFKAEPDAGMLAEKEWQAAQGNSGPDVSLLRSLLGADEQAAAALLLAQRKNGTSMSLTALSMGDERALHWLRYLMALGFEDAVLLETAADLRFAPEFVARHIAEWQYQNPLELIITGCQSSEGQNGQTPFLLAEMLGWPCFTQVERFTLDAPFITLEQRTENGLRCCRVRLPAVIAVRQCGEVALPVPGMRQRMAAGKAEIIRKTVAAEMPAMQCLQLARAEQRRGATLIDGQTVAEKAQKLWQYYLCQRMQP”, the protein production entry is given as “failed”. The result for “MSLTSVVFLNPGNSTETFWVSYSQFMQAAARDLGLDLRILYAERDPQNTLQQARELFQGRDKPDYLMLVNEQYVAPQILRLSQGSGIKLFIVNSPLTLDQRELIGQSRQNYSDWIGSMVGDDEEAGYRMLKELLHKLGPVPAGHGIELLAFSGLKVTPAAQLRERGLRRALAEHPQVHLRQLVYGEWNRERAYRQAQQLLKRYPKTQLVWSANDEMALGAMQAARELGRKPGTDLLFSGVNSSPEALQALIDGKLSVLEAGHFTLGGWALVALHDDALGLDARRLGGPDWQLSLFQALTPAQARQLLRLGDQVGTRVDFRGLSAQGKPDSYRYPFGLQLLLREGHHHHHH” reads “not failed”; that for “MSTQTSIEWTEMTWNPIVGCTKVSPGCKHCYAENMAHRLQAMGTPGYENGFKLSLRPEKLREPLQRKKPTIYFVNSMSDLFHEKVPDHYIDQVFEVIREATQHTFQILTKRAERLADYFSKRTPPTNAWLGVSVEDKAYGVPRIDCLRRVNATIRFLSAEPLLEDLGEIDLTDIHWVIVGGESGNKARPMQQEWVDNIHRQCDVSGSAFFFKQWGGWGADGVKRSKKANGRLLNGQTWDEIPLLNLALEHHHHHH”, “failed”; that for “MGCLYSKGNVHFSIDDEIYDIKETRKQQQKEKEKEEEEKKLRPSSTPKVEHTWPSKLELSLQHLSQKTQNARKIQAWWRGTLVRRSLLRAALSAWIIQSWWRKILAKRQEKNRLIILHLMAQETRACVLIQSWVRMLKIRQNYCRLCYATRVIQASWRWYNCRTRGFFQGSYELVGNKLRLRLDIFLGSQVCRISDCISLPIKN”, “failed”.

With “MPSTQSLTVAAKTLRNRIFSRSGSTSAGPSRWATPGHEERPKGYFMNRTPPAPGQSRKWEDWELPCYITSFLTIVILGVGLNAKPDLSIETWAHQKALERLEMEKLATAGDSSD”, the protein production result is listed as “failed”. With “MAELEKTFALIKPDAVRAGKAQEIMQLIELNGFTIIAKQKLQLTRARAEEFYGEHKGKEFFPKLVNFMTSGPIWALVLAKPGAILAWRALMGPTNVFKARAEQPKCLRALYGTDGTQNATHGSDSPISAAREIKFFFPTLSGDPTIYAEPTAAAEYITKRIQPALAKALAALAREKPSADKFEAITFVAGYLLQNNPNKPKV”, the protein production result was “not failed”. Turning to “MSQQSSSPTKEDNNSSSPVVPNPDSVPPQLSSPALFYSSSSSQGDIYGRNNSQNLSQGEGNIRAAIGSSPLNFPSSSQRQNSDVFQSQGRQGRIRSSASASGRSRYHSDLRSDRALPTSSSSLGRNGQNRVHMRRNDIHTSDLSSPRRIVDFDTRSGVNTLDTSSSSAPPSEASEPLRIIWGTNVSIQECTTNFRNFLMSFKYKFRKILDEREEFINNTTDEELYYIKQLNEMRELGTSNLNLDARNLLAYKQTEDLYHQLLNYPQEVISIMDQTIKDCMVSLIVDNNLDYDLDEIETKFYKVRPYNVGSCKGMRELNPNDIDKLINLKGLVLRSTPVIPDMKVAFFKCNVCDHTMAVEIDRGVIQEPARCERIDCNEPNSMSLIHNRCSFADKQVIKLQETPDFVPDGQTPHSISLCVYDELVDSCRAGDRIEVTGTFRSIPIRANSRQRVLKSLYKTYVDVVHVKKVSDKRLDVDTSTIEQELMQNKVDHNEVEEVRQITDQDLAKIREVAAREDLYSLLARSIAPSIYELEDVKKGILLQLFGGTNKTFTKGGRYRGDINILLCGDPSTSKSQILQYVHKITPRGVYTSGKGSSAVGLTAYITRDVDTKQLVLESGALVLSDGGVCCIDEFDKMSDSTRSVLHEVMEQQTISIAKAGIITTLNARSSILASANPIGSRYNPNLPVTENIDLPPPLLSRFDLVYLVLDKVDEKNDRELAKHLTNLYLEDKPEHISQDDVLPVEFLTMYISYAKEHIHPIITEAAKTELVRAYVGMRKMGDDSRSDEKRITATTRQLESMIRLAEAHAKMKLKNVVELEDVQEAVRLIRSAIKDYATDPKTGKIDMNLVQTGKSVIQRKLQEDLSREIMNVLKDQASDSMSFNELIKQINEHSQDRVESSDIQEALSRLQQEDKVIVLGEGVRRSVRLNNRV”, the protein production result is given as “failed”. For “MKILTQSLPNSSAAYLQGYLRENTDSSVTYPTVIIVPGGSYTHIPERQAEDLALAWVARGYQAFFLRYSFISEKTPLLPNPVIELAQSVAAIHAHATTWHVDLRRLAVAGFSVGGHITALFNDWWSEADFNQQAHTTPEQLKVQAVILGYPVISPDLGFPTDAATLATWSTTPKKIAADQHVTAANAPTFIWVTANDPLVPVQNALAYAQASLTHGVDTELHVFHNGPHGLALANSVTAWKPGTDLPHVAHWLDLATEWLQDLKLEHHHHHH” the value was “not failed”; for “MTRTLTTPLPTAPRAKPARRPTTLLFAYGATLNPEHIMVRLCQPKIRAIARLPDYRLGFHGHSEVWDSGLETLVDEPGAEAWGVLYELSATELDRFDAWQGVKLDGGGSYFHYPVEVIDENGQLLDALFHRKTEMGPQQPASRDYLDFILAGARARGLPARAIAVLEACTAVQARYPVPKMNTDIKALASKLSCAC”, “failed”. For “MALDSSGKQPEQQQQQQPRASSGNGEARLKLRRTPNEEHEPENYEDLPLDYSPSLFTSLERYLPEQLLNSTRIDKASFMRDLLLRYSPDTERVRVLRHKEYRDKIMSSYQRLHGEIYTLDPSSFFAPSFLGAFSRKSEPNFRSSMVESYPGIFTFEMFKPQFCEMLLAEVEHMEKWVYDSRSTIMRPNTMNNFGVVLDDFGFDSMLQKLVDDFISPIAQVLFPEVCGTSLDSHHGYIVEYGKDRDVDLGFHVDDSEVSLNVCLGKQFSGGELYFRGVRCDKHVNSDSTEKEVYDYSHVPGHAILHRGRHRHGARATTSGHRANLILWCRSSTFREMKNYQRDFSGWCGGCKLDKQRRQRDSINATKEILARKAAEKTLVELASKSCAE” the value was “failed”; for “DAPPAWLRCLAATYPVLAPLPNWGLSESRFRPVRAVANAGALPVVLTRVGREMPEIAATVEEFLAAAKDCGADVEVVDVPHGHHGFETIDLTDESRTAVRHALRTVL”, “failed”; for “MDKDLKLRPRIKRLLSPAVMQAELLGGAAWLWVLMLGPSVKINLFTCFLTLSLACICWIQHTTTVFCIWRLLGIAYMLLLATGFFYLMDGDPEINIFALPLTITLAISSALLFVKFLDYLLSAVFVWLLTWLCWQEGVYGEIGIYVWIFCVASVCIGSVLNISYIKTLRAVLSLESKFRELAETDYLTSIPNRRAFMESFDSLIKGGESGYLIMLDIDNFKLINDRHGHEIGDRILCSMAACLRATSGSHCAGRIGGEEFGVLITGGDELTACDYILRLLETVRANFDPPYNYSCSVGMVRFSAASTMSEALSMADKSMYIAKRNGKDCAYFEGQEIVSFLFDDSKLKEKYPTETLSENTYQTDTQ”, “failed”. For “MTHVRIVMVNTTLPANIGSALRAMKTMGLSQLVLVAPKTYPHPDIDALAAGAQDLVEKIKIVDTLEQAIQDCHIVFGTSARSRTIPWPLLDARPAAELSMDAVITRQQEIAIVFGREDRGLTNEELALANYHLTIPVNTDYGVLNVAQAIQVICYEMRMATLAQVQNDQASSDSQKMQVTEKIEMDWDEPLVNHQQMEEFYPHLEKMLVDIEFLDPQNPRLLPLRLRRLFGRAQLDRMEYHLLRGIFSRVQALSHGKWKKTALDKEEQSDV” the value was “failed”; for “MATPPFDPSLSPLKTVAVIGLGTMGTGIAEVLARAGREVVGIDISEAAAGHAVTALEASTARAVQRERLTEQERGDILARFRTFTDLQAAADADLVIEVTPESYEIKQQVLRALDGIVRADTILATGTNALSVTRLAADSAHPERVLGLHFFNPAPAMKLVEVVSSVLTAPTAVAAVTNLALDLGKEPVAVGDRPGFVADGLLFGYLNQAAAMYEAKYASREDIDAAMKLGCGLPMGPLALLDLIGVDTARTVLEAMYAESRDRLHAPAPILKQLSEAGLTGRKSGRGFYSYDEPGSATVVRDALTPLSGGPGEQGRTVRSVGVAGSGTMASGIAEVFAKAGYEVVLAARSEEKAQTAKARIGKSLSRSVDKGRLTAEAAAETLDRITPAGSYDAFADVDLALEAVAEDLEIKQQLFATFDKVCKPGAILATTTSSLPVVACARATSRPQDVIGMHFFNPAPAMKLVEVVRTVLTGDDVHATVREVCAKIRKHPVDCGDRAGFIVNALLFPYLNNAIKMVQEHYATLDDIDAAMKLGGGYPMGPFELLDVVGLDVSLAIEKVLHREFRDPGLAPAPLLEHLVAAGCLGRKTGRGFREYAKR”, “failed”. As for “MIQAVFERAEDGELRSAEITGHAESGEYGLDVVCASVSTLAINFINSIEKFAGYEPILELNEDEGGYLMVEIPKDLPSHQREMTQLFFESFFLGMANLSENYSEFVQTRVITEN”, the protein production entry is recorded as “not failed”. For “MAFNGAMSVGAQISDAVILAHSPKSCTHIMYQTISSAGRRTLFERGALLPVSLAPNLESTDMGEAEMIFGGMEKLEEKILELKARQPRAIVVVSACPAGIIGDDIGRTRRFSEPGLPVVTLKTDGNLAGDYLQGMLMAYTSLARQVIRLEHHHHHH” the value was “failed”; for “MSFDPIYFLTPIIVMVFSFGMVYKLVKSIKVLMFSALAYFIAIVLKVLVQFFTLGYLASINSLAVLGLYYGLQTSIFEVGLAYVFALLGKLKNGWGYGVSLAMWENGVLISIPTLFIYIAYYFFPLILSTPSQLEYPITQALPLIGLSILERVSSLLIHSSWGYLSVLSVITGRKRLILVAFPMGFVDFLVPFEKYLGILTFEFIFFCIGLICLVMAWSLGKYYRSTSSKDT”, “failed”; for “QDVLRGTLNLYCSVTAAYSHLPQLLERFRQEHPFVEIALTTGDAANALAEIQQNRADIAIAALPDPFPATLHFAKIDDVPLSLIAPTMRCAVQQQISQTQIDWARVPFIIPDHGPGRRRADNWFKQMGISPNIYAQVSGQEAIASMVALG”, “failed”.

In the case of “RSRRFAHLQLFAHLELPCWARIRDLLNIGLPIGISILMEGGLFIVTTLLIGRFGTDEIAAHQIALSVAQLCFMIPMGVAEATTVRIGHAVGRCDLLVMRRVAWAGYAIVIGTQTLSASVLLLGYDVIVAAYTDDLVVASLASKLLLFAAIFQFPDGLQMLSSGVLRGMKDTRVPM”, the protein production entry is given as “failed”. For “MTRTPLTLEQLNALSDDAFTEHFAGVLEHSPHYARRAAAGRPFADVEEVAAAFARAVAADEPGAQVQLIRAHPDLAGKAALAGELTAESASEQTSAGLDRLSPEEYAEFQRLNAAYHERFGLPYVVCVRENTKDTIFEGARRRLTHTQEEEQAAALHEIGRIARLRILDLVQEGRQEKRMDGRLIRIPLEHHHHHH” the value was “failed”.

Turning to “MLEVDVVRISVIVPIYNVKLYIERCVRSLMEQTLENIEFIFVNDCTPDDSMDILHYVLEEYPKRREQIKIIEHETNRGISAVRNTGLKNATGQYIIYCDSDDWVEKNMYEKLLVKALETSADIVGCDFFDDYVAHSTIRKQLFPQQSEKCVKKMLRGELHCGTWNKLVIKSLYERTKIDFPEGINMWEDVSTIIPLCFHATKIDYIPEALYHYIHHNVSSYTYSVTEKSLENLVASIQLLESFFLTNQCFKTFGEDLCFMKLTVKLNLLLGSKGELQKKRNMLYSSANRYIFSYSGMSWYWKIALWVASKKMLFCFNVMSCIERIIKKWKLEHHHHHH”, the protein production result is reported as “failed”. Turning to “MDSRSLSVHDGAMQTLTVPDSGLAPLLPGQRLARGVCRHLRSHDFVSVVELVPAPGLRVDVMALGPKGEIWVVECKSSRADYQSDRKWQGYLDWCDRFFFAVDEAFPVDLLPEGTGLMLADGYDAEILRIGPEGRLAPARRKAVIQGFARHAALRLQGLRDPGAFPG”, the protein production entry was “failed”.

Values taken from a protein production outcome set (Wang et al. 2014).
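Further: failed if final PepcDB status was selected cloned or expressed and not failed if soluble or beyond.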
